Measured values published in the supplement of paper PMC12764529.
± gives the half width of the 95% confidence interval.

Columns and labels:
[1] = folding stability dG unfold from chymotrypsin proteolysis; higher = more stable
In short: (§1)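 Only designs with AlphaFold2 dimer inter-PAE above 15 were retained; each was a mini-protein under 80 residues with no cysteine, in a PA-tagged cDNA display construct. After digestion with trypsin and chymotrypsin and sequencing, K50 was inferred by Bayesian fitting of counts, and unfolding free energy was derived per protease or combined against a sequence-predicted unfolded-state K50 and a shared folded-state K50.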

[2] = folding stability dG unfold from trypsin proteolysis; higher = more stable
In short: as §1

[3] = folding stability dG unfold (combined trypsin and chymotrypsin); higher = more stable
In short: as §1

Sequence | folding stability dG unfold [1] [kcal/mol] | folding stability dG unfold [2] [kcal/mol] | folding stability dG unfold [3] [kcal/mol]
SAGGSAGGSAGGSLEIEITFELPDDVRLRIRARIEPLPDGSLKVEVEIELIPVKPDEDLSAGGSAGGSAGGS [r10_241_TrMRF] | 2.9 ± 0.089 | 3.17 ± 0.15 | 3.09 ± 0.21
SAGGSAGGSAGGSLETRPVLLILKDEEGKPYAVARLEVRELPNGGVEVTVTEIVPAEELSAGGSAGGSAGGS [r4_117_TrMRF] | 1.5 ± 0.095 | 0.912 ± 0.035 | 1.36 ± 0.11
SAGGSAGGSAGGSLPLILRLAEENGFSVSAVPIPETGTYKAVVTLPDGKPITIELPLTLSAGGSAGGSAGGS [r4_121_TrMRF] | 1.04 ± 0.33 | 0.295 ± 0.12 | 0.804 ± 0.2
SAGGSAGGSAGGSMATITPEGDKYLVTITNPDGSTTTKEFDSLEEVKKLPSSYPIEFSDSAGGSAGGSAGGS [r4_447_JUSTAS] | 0.802 ± 0.026 | 2.11 ± 0.065 | 1.52 ± 0.094
SAGGSAGGSAGGSMIIRIETKDGKIIEIEIKEDEDKTPEEIAKELAKKYNIKKIEIFEPSAGGSAGGSAGGS [r4_116_TrROS_Hall] | 3.57 ± 0.062 | 3.27 ± 0.12 | 3.44 ± 0.096
SAGGSAGGSAGGSMITIEVTTPTEKHTIEVPEDEVPEEELIERAKKLFPDVEKITILKESAGGSAGGSAGGS [r4_235_JUSTAS] | 0.613 ± 0.059 | 0.65 ± 0.037 | 0.636 ± 0.08
SAGGSAGGSAGGSMIVVPVTSNEVVDNLGGPVTVPAGTVIIIERTENSVKVEVLPPEKLSAGGSAGGSAGGS [r10_353_JUSTAS] | 0.353 ± 0.019 | 0.917 ± 0.048 | 0.643 ± 0.11
SAGGSAGGSAGGSMKEVTITLTDPETGKVSTLVLKLSPEEIEKAAEELAKSSGKKVTIRSAGGSAGGSAGGS [r4_301_JUSTAS] | 1.99 ± 0.066 | 1.04 ± 0.068 | 1.78 ± 0.13
SAGGSAGGSAGGSMKIEIVTNDPKKAEEIKEKLEKEGYPKKKNPINIEVKEISEEELLKSAGGSAGGSAGGS [r4_281_JUSTAS] | 0.628 ± 0.053 | -0.113 ± 0.085 | 0.533 ± 0.16
SAGGSAGGSAGGSMLPPDTTVTSTTFLPNGTVVNTTTTYTATPDDTYTVTTTTTTTPLTSSAGGSAGGSAGG [r7_249_JUSTAS] | 0.631 ± 0.16 | 0.765 ± 0.037 | 0.766 ± 0.11
SAGGSAGGSAGGSMLVELDENGKTLTIYDEETQELIEVEVEPAPPVEETVTEVSEEELKSAGGSAGGSAGGS [r4_56_TrROS_Hall] | 0.000558 ± 0.08 | 0.666 ± 0.098 | 0.375 ± 0.26
SAGGSAGGSAGGSMPENLVTITTETTVVKSPLANPVNESPVWEVEVISSPVTVVPPSLLSAGGSAGGSAGGS [r4_417_JUSTAS] | 0.0877 ± 0.12 | 1.25 ± 0.087 | 0.812 ± 0.1
SAGGSAGGSAGGSMSGVFSTETVFLEKTLPDGSRVEALTTIETYLPLPPLPPFKFPSAVSAGGSAGGSAGGS [r4_325_JUSTAS] | 0.415 ± 0.13 | 0.13 ± 0.1 | 0.437 ± 0.26
SAGGSAGGSAGGSMSSSSSPLPDEDGLVTRGKSSEPSPPFTWTTTVDSSGVPSTTVTSLESAGGSAGGSAGG [r7_187_JUSTAS] | 0.602 ± 0.051 | -0.484 ± 0.1 | 0.323 ± 0.07
SAGGSAGGSAGGSMTITYDKENKTLTIKLPNGKKVLTVNLENMTPEQLKELAKKLGLEVSAGGSAGGSAGGS [r4_49_TrROS_Hall] | 3.62 ± 0.076 | 3.18 ± 0.2 | 3.44 ± 0.11
SAGGSAGGSAGGSMTTVTLPDAVSTNVTTTKLPDNTTKVDITTTFPDGSTRSSTITINPSAGGSAGGSAGGS [r4_452_JUSTAS] | 1.32 ± 0.05 | -0.305 ± 0.049 | 0.908 ± 0.07
SAGGSAGGSAGGSMTVTLSREELLRLLGVPPGVPIPESVLAKIKSIETLPDGSVTVTIGSAGGSAGGSAGGS [r4_369_JUSTAS] | 3.118 ± 0.027 | 1.98 ± 0.027 | 2.74 ± 0.11
SAGGSAGGSAGGSMTVTVTLKDGSTRTFAVPADAPLTLEQLEAAGYPAADIAEVTVTAESAGGSAGGSAGGS [r10_565_JUSTAS] | 3.292 ± 0.021 | 1.88 ± 0.049 | 2.96 ± 0.038

Sequence | folding stability dG unfold [1] [kcal/mol] | folding stability dG unfold [2] [kcal/mol] | folding stability dG unfold [3] [kcal/mol]
SAGGSAGGSAGGSMVKVEKNGEGVVTTTTKYFFYPSTGKWSSETITTTKKVPKDEPFPLSAGGSAGGSAGGS [r4_215_JUSTAS] | -0.0539 ± 0.33 | -0.159 ± 0.14 | -0.0856 ± 0.23
SAGGSAGGSAGGSNDNVVPITILFVDPGKDDRLYLREIRLRIYENGDIEAEVKVYELPLSAGGSAGGSAGGS [r10_598_TrMRF] | 4.12 ± 0.075 | 2.87 ± 0.11 | 3.68 ± 0.1
SAGGSAGGSAGGSPDGWKFKMEMFTVKVPGAKITIPDGKSITLPPGKEVTIMIMTYVPPSAGGSAGGSAGGS [r4_26_TrROS] | 3.81 ± 0.086 | 2.25 ± 0.068 | 3.47 ± 0.092
SAGGSAGGSAGGSPGNYREVEIEFRDPDDNGKEVKIEIWVQPGMPEEQIKEFVRELLRRSAGGSAGGSAGGS [r4_442_TrROS] | 1.4 ± 0.19 | 0.942 ± 0.18 | 1.32 ± 0.25
SAGGSAGGSAGGSPKVYVELRFKLPNNLYVEIRYEIDPEKPGYVDWEVRLFDENGNPLGSAGGSAGGSAGGS [r4_297_TrMRF] | 4.74 ± 0.096 | 3.61 ± 0.23 | 4.56 ± 0.16
SAGGSAGGSAGGSPNWVWILITVKITFPIYKYDPDGKPLEPIEITIEFTVLIRIPPGDFSAGGSAGGSAGGS [r4_425_TrROS] | 5.34 ± 0.18 | 3.63 ± 0.19 | 5.15 ± 0.27
SAGGSAGGSAGGSPSETLEVTLADGTRLTVTRNADGSLTVTVEPAPPPPVVVFKSPEELSAGGSAGGSAGGS [r4_120_TrROS_Hall] | 0.623 ± 0.14 | 1.44 ± 0.025 | 1.14 ± 0.096
SAGGSAGGSAGGSPVAAKTLSKSTSLLPNGKVKTSTTTAFPTGETTTTTTTTPLSLTLTSAGGSAGGSAGGS [r10_1206_JUSTAS] | 0.158 ± 0.17 | -0.654 ± 0.27 | -0.0493 ± 0.12
SAGGSAGGSAGGSPVSPKIVTTDPGPNVITTVYYSPEDGKVLSTSTTVVPPLPPGEILTSAGGSAGGSAGGS [r10_1051_JUSTAS] | 0.817 ± 0.21 | 1.45 ± 0.085 | 1 ± 0.32
SAGGSAGGSAGGSQDLVKITIKLPGGEEKEITTPAEEIDKAIKELGIKKEDVEILEITEVSAGGSAGGSAGG [r7_211_JUSTAS] | 1.56 ± 0.051 | 1.13 ± 0.093 | 1.34 ± 0.24
SAGGSAGGSAGGSSEPVVILVPVLPDAEEAVVDIGGHPALVKRFPDSPLAAITVPKELLSAGGSAGGSAGGS [r4_430_TrMRF] | -0.581 ± 0.048 | 0.0985 ± 0.033 | -0.149 ± 0.066
SAGGSAGGSAGGSSKNRPLVIIDYPFYTSNPDYIVRATFINYLDENNNITEVKVEVLKASAGGSAGGSAGGS [r4_75_TrMRF] | 3.14 ± 0.095 | 2.3 ± 0.22 | 2.59 ± 0.27
SAGGSAGGSAGGSSLASDPTVPPDEPRTVTVLEPEPGGRLRVVTYEETPAGRRPVSALLSAGGSAGGSAGGS [r10_288_JUSTAS] | 1.09 ± 0.26 | -0.782 ± 0.95 | 0.336 ± 0.21
SAGGSAGGSAGGSSMAIKKVSEFLLRPENGELIKVTVYRKPGPETIVTVIGDKTYTFEPSAGGSAGGSAGGS [r4_114_JUSTAS] | 0.336 ± 0.11 | -0.855 ± 0.25 | 0.0399 ± 0.1
SAGGSAGGSAGGSSMITVSTTSFPDGTRKVTITEPGTGKPLKTVDMPPSESVSAVKEKLSSAGGSAGGSAGG [r7_633_JUSTAS] | -0.67 ± 0.2 | -0.012 ± 0.1 | -0.245 ± 0.2
SAGGSAGGSAGGSSMSSGPGRLSITTSTVDTGSFFKPGGEVEGSKTTTVTVTTLLPPSTPSAGGSAGGSAGG [r7_614_JUSTAS] | 1.27 ± 0.067 | 0.21 ± 0.025 | 0.908 ± 0.054
SAGGSAGGSAGGSSSSTVPLPDDTTLTVHTGSSSYTVTTTSPDGTSTTTTVSPATVAAALSAGGSAGGSAGG [r11_1068_JUSTAS] | -0.0339 ± 0.1 | 0.255 ± 0.022 | 0.188 ± 0.077
SAGGSAGGSAGGSSTSLIGNSTVTVDPVYVTDTGERGFVISADVPPSVSEAVVEAHVASSAGGSAGGSAGGS [r10_531_JUSTAS] | 0.0382 ± 0.022 | 0.869 ± 0.028 | 0.485 ± 0.05
